Test results from the supplement of paper PMC9112550, “Optimization of the antimicrobial peptide Bac7 by deep mutational scanning” (BMC Biology, 2022).

Tested on: Escherichia coli TOP10
Assay: shrunken log2 fold change of peptide-encoding DNA abundance (4.5 h post-induction vs induction); higher = less antimicrobial activity (less host growth inhibition)
Details: time post-induction: 4.5 h; library: site-saturation at positions 5, 18, 19, 20
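Further: peptides expressed intracellularly from a pBAD plasmid library in pooled LB shake-flask culture, induced with 0.3% L-arabinose, DNA abundance read by NGS, three biological replicates, DESeq2 with apeglm shrinkage.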

Sequence | shrunken log2 fold change
RRIRLRPPRLPRPRPRPIPGPRP | 0.00419
RRIRLRPPRLPRPRPRPIPRPRP | 0.0727
RRIRLRPPRLPRPRPRPIRCPRP | -0.0375
RRIRLRPPRLPRPRPRPIRDPRP | -0.0112
RRIRLRPPRLPRPRPRPIRKPRP | -0.14
RRIRLRPPRLPRPRPRPIRMPRP | -0.0243
RRIRLRPPRLPRPRPRPISCPRP | -0.0691
RRIRLRPPRLPRPRPRPISTPRP | -0.161
RRIRLRPPRLPRPRPRPITQPRP | -0.264
RRIRLRPPRLPRPRPRPITRPRP | 0.177
RRIRLRPPRLPRPRPRPITSPRP | 0.0662
RRIRLRPPRLPRPRPRPITYPRP | -0.266
RRIRLRPPRLPRPRPRPIVDPRP | -0.103
RRIRLRPPRLPRPRPRPIVWPRP | -0.027
RRIRLRPPRLPRPRPRPIWMPRP | 0.0146
RRIRLRPPRLPRPRPRPIWPPRP | 0.356
RRIRLRPPRLPRPRPRPIYAPRP | 0.111
RRIRLRPPRLPRPRPRPKANPRP | 0.0584
RRIRLRPPRLPRPRPRPKCEPRP | 0.0288
RRIRLRPPRLPRPRPRPKCMPRP | -0.152

Sequence | shrunken log2 fold change
RRIRLRPPRLPRPRPRPKCPPRP | -0.193
RRIRLRPPRLPRPRPRPKCRPRP | 0.147
RRIRLRPPRLPRPRPRPKDNPRP | -0.303
RRIRLRPPRLPRPRPRPKDVPRP | -0.0185
RRIRLRPPRLPRPRPRPKEPPRP | -0.0333
RRIRLRPPRLPRPRPRPKFCPRP | -0.0573
RRIRLRPPRLPRPRPRPKFDPRP | -0.115
RRIRLRPPRLPRPRPRPKFSPRP | -0.0419
RRIRLRPPRLPRPRPRPKGDPRP | 0.182
RRIRLRPPRLPRPRPRPKGHPRP | -0.0999
RRIRLRPPRLPRPRPRPKHFPRP | -0.494
RRIRLRPPRLPRPRPRPKHNPRP | -0.384
RRIRLRPPRLPRPRPRPKIKPRP | -0.36
RRIRLRPPRLPRPRPRPKKWPRP | 0.11
RRIRLRPPRLPRPRPRPKLTPRP | 0.106
RRIRLRPPRLPRPRPRPKMPPRP | -0.0152
RRIRLRPPRLPRPRPRPKNHPRP | -0.269
RRIRLRPPRLPRPRPRPKNPPRP | -0.606
RRIRLRPPRLPRPRPRPKQCPRP | -0.0836
RRIRLRPPRLPRPRPRPKRWPRP | 0.356

Sequence | shrunken log2 fold change
RRIRLRPPRLPRPRPRPKSEPRP | 0.0422
RRIRLRPPRLPRPRPRPKTWPRP | 0.108
RRIRLRPPRLPRPRPRPKVDPRP | -0.00247
RRIRLRPPRLPRPRPRPKVQPRP | 0.22
RRIRLRPPRLPRPRPRPKVYPRP | -0.0494
RRIRLRPPRLPRPRPRPKWVPRP | -0.25
RRIRLRPPRLPRPRPRPKYIPRP | -0.603
RRIRLRPPRLPRPRPRPLAMPRP | -0.218
RRIRLRPPRLPRPRPRPLDMPRP | -0.358
RRIRLRPPRLPRPRPRPLDNPRP | -0.293
RRIRLRPPRLPRPRPRPLERPRP | -0.000861
RRIRLRPPRLPRPRPRPLFMPRP | -0.546
RRIRLRPPRLPRPRPRPLFPPRP | -0.203
RRIRLRPPRLPRPRPRPLFSPRP | -0.588
RRIRLRPPRLPRPRPRPLFTPRP | -0.232
RRIRLRPPRLPRPRPRPLHHPRP | -0.533
RRIRLRPPRLPRPRPRPLIEPRP | 0.0414
RRIRLRPPRLPRPRPRPLIGPRP | 0.0224
RRIRLRPPRLPRPRPRPLKHPRP | -0.161
RRIRLRPPRLPRPRPRPLKLPRP | -0.117
